The target in test [1] is OX40 on activated T cells (PBMCs activated with Human T cell Activator Dynabeads) (human) (UniProt P43489). Briefly: flow cytometry on activated PBMCs, CD8+ T cells with low OX40.
For test [2] the target is unchanged. Briefly: flow cytometry on activated PBMCs, CD4+ T cells with high OX40. On the technique in general: Flow cytometry measures light scatter and fluorescence of single cells or particles in a stream.
Test [3] deals with OX40-Fc (R&D) (human) (UniProt P43489). Briefly: ELISA, plate coated with 0.4 ng/mL OX40-Fc, anti-human kappa-HRP detection.
Test [4] shares this target. Briefly: ELISA, plate coated with 1.6 ng/mL OX40-Fc, anti-human kappa-HRP detection.

For one molecule, fold better binding than Anti-OX40 #1-IgG (ratio of Kd, IgG to IgM) and fold better binding than Anti-OX40 #1-IgG (ratio of Bmax) results are on record in patent US20190330374A1.

Sequence of OX40-Fc (R&D) (human) (P43489 29-216 limits assumed): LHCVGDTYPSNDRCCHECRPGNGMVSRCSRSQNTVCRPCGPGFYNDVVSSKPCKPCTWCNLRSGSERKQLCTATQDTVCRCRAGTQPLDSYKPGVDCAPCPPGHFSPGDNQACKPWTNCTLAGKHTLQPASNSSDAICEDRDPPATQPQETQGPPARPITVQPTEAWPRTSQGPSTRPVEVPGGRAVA
Sequence of OX40 on activated T cells (PBMCs activated with Human T cell Activator Dynabeads) (human) (P43489 29-277): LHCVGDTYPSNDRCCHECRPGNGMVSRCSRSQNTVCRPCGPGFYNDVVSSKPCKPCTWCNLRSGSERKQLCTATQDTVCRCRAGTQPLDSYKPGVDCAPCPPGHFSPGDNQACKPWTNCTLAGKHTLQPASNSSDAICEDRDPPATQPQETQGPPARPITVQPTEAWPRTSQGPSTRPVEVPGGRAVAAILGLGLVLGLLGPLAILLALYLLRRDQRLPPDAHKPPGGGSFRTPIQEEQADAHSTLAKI

B1: Anti-OX40 #1-IgM (antibody, V domains shown)
VH: QVQLQESGPGLVKPSQTLSLTCAVYGGSFSSGYWNWIRKHPGKGLEYIGYISYNGITYHNPSLKSRITINRDTSKNQYSLQLNSVTPEDTAVYYCARYKYDYDGGHAMDYWGQGTLVTVSS
VL: DIQMTQSPSSLSASVGDRVTITCRASQDISNYLNWYQQKPGKAPKLLIYYTSKLHSGVPSRFSGSGSGTDYTLTISSLQPEDFATYYCQQGSALPWTFGQGTKVEIK
B1: the fold better binding than Anti-OX40 #1-IgG (ratio of Kd, IgG to IgM) in test [1] was found to be 25 fold; in test [2], 6 fold. Further, the fold better binding than Anti-OX40 #1-IgG (ratio of Bmax) with OX40-Fc (R&D) (human) [3] worked out at 28 fold; with OX40-Fc (R&D) (human) [4] it was 1.2 fold.
